The values that follow come from US20260166140A1, “Combinations Involving Epidermal Growth Factor Receptor Tyrosine Kinase Inhibitors For the Treatment of Cancer” (AstraZeneca AB, priority 2022, published 2026).

One experiment concerns H1975 cells. Nature of the experiment: Internalization of AF647-labeled antibodies, live cell confocal fluorescence microscopy. In kind it is cell-based. The protocol: Internalization kinetics of AlexaFluor647 (AF647) primary-labeled DuetMabs: RAA22/B09 and QD6/B09 antibodies was assessed in vitro using the EGFR and c-MET expressing cell line, H1975. Each antibody was pre-bound to cells and antibody translocation from cell surface to cytoplasm was then monitored using live cell confocal fluorescence microscopy. Both antibodies localized primarily on the cell surface before (T=0) subjecting to internalization conditions and were translocated to the cytoplasm area after 1 hour (data not shown). Kinetic images were taken every 5 min over the time course of internalization and were processed using a quantitative algorithm to determine internalization kinetic constants and half-times.
To evaluate the mode of antibody internalization and to investigate contribution of each arm to overall internalization of the DuetMabs, we evaluated internalization of single-arm specific control antibody molecules, QD6/IgG and B09/IgG, against duet QD6/B09, and RAA22/IgG and B09/IgG against duet RAA22/B09 in H1975 cells, which express both EGFR and c-MET. Since only one arm is specific for the target receptor, the control antibody can only internalize via one receptor eliminating dual receptor targeting and cross-linking as mode of internalization.

The target of another experiment is Mouse cMET (recombinant) (mouse, UniProt P16056 25-929, limits assumed). Nature of the experiment: ELISA: antigen coated at 1 ug/mL, antibody dilution series, goat anti-human Fab-HRP, A450; panel Mouse cMET. (An ELISA detects its analyte on a solid surface through an enzyme-linked reagent.)
Mouse cMET (recombinant), sequence (P16056 25-929 limits assumed): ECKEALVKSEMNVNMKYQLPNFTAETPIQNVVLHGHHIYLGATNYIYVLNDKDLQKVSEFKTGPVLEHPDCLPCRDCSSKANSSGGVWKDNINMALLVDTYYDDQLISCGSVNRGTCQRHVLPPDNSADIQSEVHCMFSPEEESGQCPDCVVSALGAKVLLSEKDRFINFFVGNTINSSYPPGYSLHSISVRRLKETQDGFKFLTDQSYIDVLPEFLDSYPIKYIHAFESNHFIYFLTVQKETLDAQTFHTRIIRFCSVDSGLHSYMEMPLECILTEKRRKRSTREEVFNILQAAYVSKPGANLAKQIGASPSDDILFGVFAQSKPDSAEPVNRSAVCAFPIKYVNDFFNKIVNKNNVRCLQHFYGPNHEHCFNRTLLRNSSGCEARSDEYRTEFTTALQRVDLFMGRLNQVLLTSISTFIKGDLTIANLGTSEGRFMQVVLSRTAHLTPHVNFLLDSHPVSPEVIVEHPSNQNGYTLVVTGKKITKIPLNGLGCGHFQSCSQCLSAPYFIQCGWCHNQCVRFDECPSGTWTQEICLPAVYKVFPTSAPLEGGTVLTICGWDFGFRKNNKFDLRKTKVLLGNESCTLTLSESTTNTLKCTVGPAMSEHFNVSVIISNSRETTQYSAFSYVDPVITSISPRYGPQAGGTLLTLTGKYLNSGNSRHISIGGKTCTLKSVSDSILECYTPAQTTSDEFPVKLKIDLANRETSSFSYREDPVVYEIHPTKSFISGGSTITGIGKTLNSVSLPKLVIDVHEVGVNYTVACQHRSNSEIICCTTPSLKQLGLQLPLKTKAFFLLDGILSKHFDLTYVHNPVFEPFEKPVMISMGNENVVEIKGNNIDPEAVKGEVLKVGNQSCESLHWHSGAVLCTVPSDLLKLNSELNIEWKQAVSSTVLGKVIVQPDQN
For experiment [1], the target named is T1, Cynomolgus monkey EGFR (recombinant, soluble monomeric) (cynomolgus monkey, UniProt P55245 25-645 (rhesus entry)).
T1 construct: also called cyno EGFR
Briefly: SPR, Biacore T200, antibody captured on anti-human IgG, soluble monomeric antigen as analyte, 25 C. For orientation: Surface plasmon resonance follows binding to a sensor surface in real time, without labels.

For experiment [2], the target named is T2, Human EGFR (recombinant, soluble monomeric) (human, UniProt P00533 25-645).
T2 construct: also called EGFR antigen
Described as above.

Experiment [3] has as its target T3, Human cMET (recombinant, soluble monomeric) (human, UniProt P08581 25-932).
T3 construct: in the HTRF assay it is called the human cMET receptor; also called His-tagged cMET antigen
The experiment is described as above.

Experiment [4] addresses T4, Mouse EGFR (recombinant, soluble monomeric) (mouse, UniProt Q01279 25-647).
T4 construct: also called murine EGFR
The description is as above.

In experiment [5] the target is T5, Cynomolgus monkey cMET (recombinant, soluble monomeric) (cynomolgus monkey, UniProt A0M8R7 25-932 (Papio anubis entry)).
T5 construct: also called cyno cMET
T5 sequence (A0M8R7 25-932 S170N/I621T): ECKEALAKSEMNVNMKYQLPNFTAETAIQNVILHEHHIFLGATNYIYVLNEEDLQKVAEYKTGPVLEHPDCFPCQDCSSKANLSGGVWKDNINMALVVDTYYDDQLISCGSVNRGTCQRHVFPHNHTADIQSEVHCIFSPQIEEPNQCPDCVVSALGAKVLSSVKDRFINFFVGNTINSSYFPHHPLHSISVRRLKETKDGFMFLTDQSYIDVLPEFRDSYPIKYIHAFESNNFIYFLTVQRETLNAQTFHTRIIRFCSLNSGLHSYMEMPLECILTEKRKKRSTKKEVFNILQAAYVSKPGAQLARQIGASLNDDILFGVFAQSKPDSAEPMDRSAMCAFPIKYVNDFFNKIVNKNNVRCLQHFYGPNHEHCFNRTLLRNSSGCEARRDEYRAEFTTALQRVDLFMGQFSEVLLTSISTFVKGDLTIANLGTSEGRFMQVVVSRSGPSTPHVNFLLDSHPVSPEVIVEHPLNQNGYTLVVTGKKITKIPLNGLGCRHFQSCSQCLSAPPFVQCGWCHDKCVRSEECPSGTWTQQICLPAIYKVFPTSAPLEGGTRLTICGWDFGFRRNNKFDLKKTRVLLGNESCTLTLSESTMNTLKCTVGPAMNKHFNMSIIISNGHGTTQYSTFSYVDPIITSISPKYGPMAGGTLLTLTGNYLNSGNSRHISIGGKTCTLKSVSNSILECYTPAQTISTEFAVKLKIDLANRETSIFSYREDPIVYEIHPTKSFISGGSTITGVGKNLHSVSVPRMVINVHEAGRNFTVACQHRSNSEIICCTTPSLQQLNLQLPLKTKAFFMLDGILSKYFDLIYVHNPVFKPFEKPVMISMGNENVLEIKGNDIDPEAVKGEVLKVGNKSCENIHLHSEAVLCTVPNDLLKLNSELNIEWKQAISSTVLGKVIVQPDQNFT
The description is as above.

In a further experiment the target is T6, HER4 (UniProt Q15303 26-649, limits assumed).
T6 construct: also called EGFR HER family protein HER4
T6 sequence (looked up): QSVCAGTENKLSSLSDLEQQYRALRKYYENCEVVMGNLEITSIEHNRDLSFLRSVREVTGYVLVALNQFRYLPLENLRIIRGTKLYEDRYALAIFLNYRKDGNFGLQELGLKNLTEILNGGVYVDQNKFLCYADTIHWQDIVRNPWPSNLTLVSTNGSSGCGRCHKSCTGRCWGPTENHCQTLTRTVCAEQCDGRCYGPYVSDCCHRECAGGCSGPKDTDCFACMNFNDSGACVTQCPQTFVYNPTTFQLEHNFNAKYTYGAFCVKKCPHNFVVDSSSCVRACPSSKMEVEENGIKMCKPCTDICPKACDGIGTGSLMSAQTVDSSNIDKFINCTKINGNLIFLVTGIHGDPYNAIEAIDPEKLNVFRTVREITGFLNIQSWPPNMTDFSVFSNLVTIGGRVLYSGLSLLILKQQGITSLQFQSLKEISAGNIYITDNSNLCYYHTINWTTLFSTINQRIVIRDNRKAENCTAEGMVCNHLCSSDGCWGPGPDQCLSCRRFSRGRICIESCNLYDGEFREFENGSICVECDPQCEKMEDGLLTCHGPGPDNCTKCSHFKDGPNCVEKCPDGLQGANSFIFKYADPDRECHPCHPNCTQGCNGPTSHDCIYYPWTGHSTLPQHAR
Nature of the experiment: ELISA: antigen coated at 1 ug/mL, antibody dilution series, goat anti-human Fab-HRP, A450; panel Human HER4.

Another experiment addresses Human EGFR (Homo sapiens, UniProt P00533). Briefly: ELISA species cross reactivity. The format is binding. Particulars: antibody 10 to 0.002 μg/mL. The protocol: (§1) Specificity for EGFR and cMET species paralogs and closely related family members was determined by ELISA. Briefly, antigen solutions were prepared in PBS at 1 μg/mL and 50 microliters was coated onto half area ELISA assay plates. Plates were washed and blocked with 1% BSA in PBS containing 0.005% Tween-20 (PBS-T) for one hour at room temperature. The wells were washed 4 times in PBS-T. As set out in FIG. 3, the primary antibodies used where: R374 (a non-binding IgG1 isotype control antibody), B09 (anti-cMET antibody), QD6 (anti-EGFR antibody), RAA22 (anti-EGFR antibody), QD6/B09 (bispecific EGFR/c-MET DuetMAb), RAA22/B09 (bispecific EGFR/c-MET DuetMAb), PaniX (anti-EGFR antibody), MetMab (anti-cMET antibody) and Mab11311 (anti-HER4 antibody). Wells were incubated with 50 microliters of the indicated primary antibodies diluted in PBS-T in a 1:3 dilution series, starting at 10 μg/mL and ending at 0.002 μg/mL, except for the HER4 binding mAb control, MAB1131, for which the series started at 1 μg/mL. The wells were washed 4 times in PBS-T, then 50 μl of goat anti-human Fab HRP-labeled secondary antibody, diluted 1:5000 in PBS-T, was added to each well and incubated for one hour at room temperature. […] 50 microliters of TMB stop solution was added to all wells and the absorbance was read at 450 nm on a SpectraMax M5 microplate reader. Data were analyzed in the SoftMax Pro 5 software and plotted using GraphPad Prism 7 graphing software.
(§2) To determine the species cross reactivity, ELISA assays were carried out as described above. […] There was no detectable binding of any of the antibodies to mouse cMET.

Another experiment deals with Cynomolgus monkey EGFR. Nature of the experiment: ELISA species cross reactivity. In kind it is binding. The protocol: as §1, §2

T3 sequence (P08581 25-932): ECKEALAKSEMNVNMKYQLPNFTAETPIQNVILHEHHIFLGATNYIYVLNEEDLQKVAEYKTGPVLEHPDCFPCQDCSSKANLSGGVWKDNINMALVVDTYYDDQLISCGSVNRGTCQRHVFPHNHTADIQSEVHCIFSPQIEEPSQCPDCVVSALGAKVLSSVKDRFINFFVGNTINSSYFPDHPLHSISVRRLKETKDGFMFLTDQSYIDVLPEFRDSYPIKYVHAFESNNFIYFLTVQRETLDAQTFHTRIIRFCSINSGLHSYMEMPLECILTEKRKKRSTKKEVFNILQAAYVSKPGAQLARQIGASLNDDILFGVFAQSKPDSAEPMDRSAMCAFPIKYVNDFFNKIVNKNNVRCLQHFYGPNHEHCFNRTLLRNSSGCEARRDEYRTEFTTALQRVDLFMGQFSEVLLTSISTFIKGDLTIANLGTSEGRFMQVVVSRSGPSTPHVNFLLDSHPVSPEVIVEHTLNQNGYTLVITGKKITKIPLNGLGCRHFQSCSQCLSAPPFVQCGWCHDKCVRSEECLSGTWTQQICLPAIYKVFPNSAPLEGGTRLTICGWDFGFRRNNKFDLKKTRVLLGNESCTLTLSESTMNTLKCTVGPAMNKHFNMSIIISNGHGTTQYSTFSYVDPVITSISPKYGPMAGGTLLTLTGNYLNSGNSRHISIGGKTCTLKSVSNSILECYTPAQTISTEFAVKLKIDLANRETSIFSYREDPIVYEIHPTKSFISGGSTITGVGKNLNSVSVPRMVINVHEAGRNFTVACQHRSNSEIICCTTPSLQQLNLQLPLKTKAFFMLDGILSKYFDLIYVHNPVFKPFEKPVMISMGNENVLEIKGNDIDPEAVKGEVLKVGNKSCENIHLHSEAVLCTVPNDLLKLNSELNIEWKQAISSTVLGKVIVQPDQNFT

B1: RAA22/B09-57 DuetMab (bispecific antibody, human IgG1, kappa, lambda)
heavy 1: QVQLVQSGAEVKKPGSSVKVSCKASGGTFSDNDFSWVRQAPGQGLEWMGAIVAVFRTETYAQKFQDRVKITADISTRTTYMELSSLRSEDTAVYYCARRLMSAISGPGAPLLMWGQGTLVTVSSASTKGPSVFPLAPSSKSTSGGTAALGCLVKDYFPEPVTVSWNSGALTSGVHTFPAVLQSSGLYSLSSVVTVPSSSLGTQTYICNVNHKPSNTKVDKRVEPKSCDKTHTCPPCPAPELLGGPSCVFLFPPKPKDTLMISRTPEVTCVVVDVSHEDPEVKFNWYVDGVEVHNAKTKPREEQYNSTYRVVSVLTVLHQDWLNGKEYKCKVSNKALPAPIEKTISKAKGQPREPQVCTLPPSREEMTKNQVSLSCAVKGFYPSDIAVEWESNGQPENNYKTTPPVLDSDGSFFLVSKLTVDKSRWQQGNVFSCSVMHEALHNHYTQKSLSLSPGK
heavy 2: QVQLVQSGAEVKKPGASVKVSCKASGYTFTDYYIHWVRQATGQGLEWMGWMNPNSGNTGYAQKFQGRVTMTRDTSISTAYMELSSLRSEDTAVYYCARGQGYTHSWGQGTMVTVSSASTKGPSVCPLAPSSKSTSGGTAALGCLVKDYFPEPVTVSWNSGALTSGVHTFPAVLQSSGLYSLSSVVTVPSSSLGTQTYICNVNHKPSNTKVDKRVEPKSVDKTHTCPPCPAPELLGGPSCVFLFPPKPKDTLMISRTPEVTCVVVDVSHEDPEVKFNWYVDGVEVHNAKTKPREEQYNSTYRVVSVLTVLHQDWLNGKEYKCKVSNKALPAPIEKTISKAKGQPREPQVYTLPPCREEMTKNQVSLWCLVKGFYPSDIAVEWESNGQPENNYKTTPPVLDSDGSFFLYSKLTVDKSRWQQGNVFSCSVMHEALHNHYTQKSLSLSPG
light 1: QSALTQPRSVSGSPGQSVTISCTGTSSDVGGYNYVSWYQQHPGKAPKLMIYDVSKRPSGVPDRFSGSKSGNTASLTISGLQAEDEADYYCSSYTSSDTLEIFGGGTKLTVLGQPKAAPSVTLFPPSSEELQANKATLVCLISDFYPGAVTVAWKADSSPVKAGVETTTPSKQSNNKYAASSYLSLTPEQWKSHRSYSCQVTHEGSTVEKTVAPTECS
light 2: DIQMTQSPSTLSASVGDRVTITCRASEGIYHWLAWYQQKPGKAPKLLIYKASSLASGVPSRFSGSGSGTEFTLTISSLQPDDFATYYCQQYSNYPPTFGGGTKLEIKRTVAAPSVFIFPPCDEQLKSGTASVVCLLNNFYPREAKVQWKVDNALQSGNSQESVTEQDSKDSTYSLSSTLTLSKADYEKHKVYACEVTHQGLSSPVTKSFNRGEV
notes: also called monovalent bispecific EGFR/cMET DuetMAb RAA22/B09; RAA22/B09-Maia
Usually Kd stands for the free concentration of one partner at which half of the binding sites on the other are occupied at equilibrium, for simple one-to-one binding. In general, koff refers to the rate constant with which the complex falls apart. A word on the kon: it is a measure of how fast the partners come together. With B1, the “binding at T=0” value with H1975 cells is 3.5×10^6 MFI. Besides, the “cytoplasmic intensity values, fold higher than B09-IgG” value with H1975 cells was 4.70 fold. In the experiment on H1975 cells, the “cytoplasmic intensity values, fold higher than RAA22-IgG” value was found to be 10.98 fold. Besides, the internalization half-times in the experiment with H1975 cells (images every 5 min) is 43.2 ± 15.5 min. The binding result with Mouse cMET (recombinant) and with HER4 was “no binding (tested: 10 ug/ml)” throughout. The dissociation constant (Kd) is 0.197 µM in [1]; 0.045 µM in experiment [2]; 0.0022 µM in [3]; 0.575 µM in experiment [4]; 0.0022 µM in experiment [5]. Besides, the koff in experiment [1] was 0.00548 s⁻¹; in [2], 0.00201 s⁻¹; in [3], 0.000986 s⁻¹; in experiment [4], 0.0206 s⁻¹; in experiment [5], 0.00212 s⁻¹. The kon worked out at 27800 M⁻¹ s⁻¹ in experiment [1]; 44700 M⁻¹ s⁻¹ in experiment [2]; 443000 M⁻¹ s⁻¹ in [3]; 35400 M⁻¹ s⁻¹ in experiment [4]; 974000 M⁻¹ s⁻¹ in experiment [5]. The ELISA binding result in the experiment with Human EGFR and in the experiment on Cynomolgus monkey EGFR was “still weaker binding” in each case.
